The record followed here is FireProtDB (doi:10.1006/jmbi.1993.1336).

First the molecules themselves.
B1: Guanyl-specific ribonuclease T1, P00651 (parent)
chain: MMYSKLLTLTTLLLPTALALPSLVERACDYTCGSNCYSSSDVSTAQAAGYQLHEDGETVGSNSYPHKYNNYEGFDFSVSSPYYEWPILSSGDVYSGGSPGADRVVFNENNQLAGVITHTGASGNNFVECT

In one data set the parent is B1. The conditions noted are these: Aspergillus oryzae (strain ATCC 42149 / RIB 40); pH 5; 25 °C; GdnHCl; Fluorescence; Sodium acetate 0.1 M; reversible: yes; structure 1RN1; whole UniProt chain shown.
Turning to MMYSKLLTLTTLLLPTALALPSLVERACDYTCGSNCYSSSDVSTAQAAGYQLHEDGETVGSNSYAHKYNNYEGFDFSVSSPYYEWPILSSGDVYSGGSPGADRVVFNENNQLAGVITHTGASGNNFVECT [P65A], the “ddG of mutation (higher = less stable)” value was 5.12 kcal/mol, the denaturant m value worked out at 2.63 kcal/mol/M, the “denaturant midpoint (higher = more stable)” value was found to be 1.71 M and the unfolding free energy came out at 4.88 kcal/mol.

The same data set, now with this note: Aspergillus oryzae (strain ATCC 42149 / RIB 40); pH 8; 10 °C; GdnHCl; Fluorescence; Tris 0.1 M; reversible: yes; structure 1RN1; whole UniProt chain shown.
As to MMYSKLLTLTTLLLPTALALPSLVERACDYTCGSNCYSSSDVSTAQAAGYQLHEDGETVGSNSYAHKYNNYEGFDFSVSSPYYEWPILSSGDVYSGGSPGADRVVFNENNQLAGVITHTGASGNNFVECT [P65A], the “ddG of mutation (higher = less stable)” value is 4.33 kcal/mol, the denaturant m value was 2.87 kcal/mol/M, the “denaturant midpoint (higher = more stable)” value was found to be 1.43 M and the unfolding free energy was found to be 4.11 kcal/mol.
